Laboratory results as given in IntAct's records for PubMed 29892012.

B1: Islet cell autoantigen 1 (Homo sapiens), Q05084 (parent)
chain: MSGHKCSYPWDLQDRYAQDKSVVNKMQQKYWETKQAFIKATGKKEDEHVVASDADLDAKLELFHSIQRTCLDLSKAIVLYQKRICFLSQEENELGKFLRSQGFQDKTRAGKMMQATGKALCFSSQQRLALRNPLCRFHQEVETFRHRAISDTWLTVNRMEQCRTEYRGALLWMKDVSQELDPDLYKQMEKFRKVQTQVRLAKKNFDKLKMDVCQKVDLLGASRCNLLSHMLATYQTTLLHFWEKTSHTMAAIHESFKGYQPYEFTTLKSLQDPMKKLVEKEEKKKINQQESTDAAVQEPSQLISLEEENQRKESSSFKTEDGKSILSALDKGSTHTACSGPIDELLDMKSEEGACLGPVAGTPEPEGADKDDLLLLSEIFNASSLEEGEFSKEWAAVFGDGQVKEPVPTMALGEPDPKAQTGSGFLPSQLLDQNMKDLQASLQEPAKAASDLTAWFSLFADLDPLSNPDAVGKTDKEHELLNA
B2: Coiled-coil alpha-helical rod protein 1 (Homo sapiens), Q8TD31 (parent)
chain: MFPPSGSTGLIPPSHFQARPLSTLPRMAPTWLSDIPLVQPPGHQDVSERRLDTQRPQVTMWERDVSSDRQEPGRRGRSWGLEGSQALSQQAEVIVRQLQELRRLEEEVRLLRETSLQQKMRLEAQAMELEALARAEKAGRAEAEGLRAALAGAEVVRKNLEEGSQRELEEVQRLHQEQLSSLTQAHEEALSSLTSKAEGLEKSLSSLETRRAGEAKELAEAQREAELLRKQLSKTQEDLEAQVTLVENLRKYVGEQVPSEVHSQTWELERQKLLETMQHLQEDRDSLHATAELLQVRVQSLTHILALQEEELTRKVQPSDSLEPEFTRKCQSLLNRWREKVFALMVQLKAQELEHSDSVKQLKGQVASLQEKVTSQSQEQAILQRSLQDKAAEVEVERMGAKGLQLELSRAQEARRRWQQQTASAEEQLRLVVNAVSSSQIWLETTMAKVEGAAAQLPSLNNRLSYAVRKVHTIRGLIARKLALAQLRQESCPLPPPVTDVSLELQQLREERNRLDAELQLSARLIQQEVGRAREQGEAERQQLSKVAQQLEQELQQTQESLASLGLQLEVARQGQQESTEEAASLRQELTQQQELYGQALQEKVAEVETRLREQLSDTERRLNEARREHAKAVVSLRQIQRRAAQEKERSQELRRLQEEARKEEGQRLARRLQELERDKNLMLATLQQEGLLSRYKQQRLLTVLPSLLDKKKSVVSSPRPPECSASAPVAAAVPTRESIKGSLSVLLDDLQDLSEAISKEEAVCQGDNLDRCSSSNPQMSS
partner: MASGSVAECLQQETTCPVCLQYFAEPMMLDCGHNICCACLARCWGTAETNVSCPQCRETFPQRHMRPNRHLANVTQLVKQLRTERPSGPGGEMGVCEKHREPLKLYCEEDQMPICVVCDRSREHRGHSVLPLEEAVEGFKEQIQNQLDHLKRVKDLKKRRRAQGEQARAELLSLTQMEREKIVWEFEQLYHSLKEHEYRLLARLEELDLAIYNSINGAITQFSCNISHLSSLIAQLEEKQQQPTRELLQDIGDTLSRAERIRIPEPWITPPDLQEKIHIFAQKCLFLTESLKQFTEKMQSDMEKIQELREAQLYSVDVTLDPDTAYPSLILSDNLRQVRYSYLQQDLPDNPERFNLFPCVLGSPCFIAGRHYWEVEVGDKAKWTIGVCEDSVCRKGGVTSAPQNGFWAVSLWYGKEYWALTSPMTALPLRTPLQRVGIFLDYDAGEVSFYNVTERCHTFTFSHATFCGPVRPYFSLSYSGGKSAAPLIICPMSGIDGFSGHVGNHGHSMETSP
B3: Coiled-coil alpha-helical rod protein 1 (Homo sapiens), Q8TD31 (parent)
chain: B2 chain
partner: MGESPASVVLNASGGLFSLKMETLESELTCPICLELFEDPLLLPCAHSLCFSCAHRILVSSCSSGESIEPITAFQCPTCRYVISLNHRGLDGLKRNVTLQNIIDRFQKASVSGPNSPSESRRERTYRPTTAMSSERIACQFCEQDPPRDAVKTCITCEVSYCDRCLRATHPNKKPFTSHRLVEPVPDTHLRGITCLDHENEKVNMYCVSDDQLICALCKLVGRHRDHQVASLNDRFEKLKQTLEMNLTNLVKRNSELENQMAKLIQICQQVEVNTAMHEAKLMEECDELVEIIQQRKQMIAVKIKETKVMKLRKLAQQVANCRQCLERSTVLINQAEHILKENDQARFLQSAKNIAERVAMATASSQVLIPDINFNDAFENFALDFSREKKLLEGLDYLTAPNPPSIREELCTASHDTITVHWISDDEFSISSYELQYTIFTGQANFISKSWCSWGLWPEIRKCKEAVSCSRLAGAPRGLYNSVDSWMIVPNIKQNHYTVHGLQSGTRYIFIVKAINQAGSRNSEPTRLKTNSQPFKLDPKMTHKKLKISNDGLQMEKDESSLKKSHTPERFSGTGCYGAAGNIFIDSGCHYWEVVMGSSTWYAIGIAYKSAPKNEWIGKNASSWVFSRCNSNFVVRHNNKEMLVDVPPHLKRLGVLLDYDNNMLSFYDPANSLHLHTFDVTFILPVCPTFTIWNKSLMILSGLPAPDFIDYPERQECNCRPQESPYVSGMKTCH
B4: Coiled-coil alpha-helical rod protein 1 (Homo sapiens), Q8TD31 (parent)
chain: B2 chain
partner: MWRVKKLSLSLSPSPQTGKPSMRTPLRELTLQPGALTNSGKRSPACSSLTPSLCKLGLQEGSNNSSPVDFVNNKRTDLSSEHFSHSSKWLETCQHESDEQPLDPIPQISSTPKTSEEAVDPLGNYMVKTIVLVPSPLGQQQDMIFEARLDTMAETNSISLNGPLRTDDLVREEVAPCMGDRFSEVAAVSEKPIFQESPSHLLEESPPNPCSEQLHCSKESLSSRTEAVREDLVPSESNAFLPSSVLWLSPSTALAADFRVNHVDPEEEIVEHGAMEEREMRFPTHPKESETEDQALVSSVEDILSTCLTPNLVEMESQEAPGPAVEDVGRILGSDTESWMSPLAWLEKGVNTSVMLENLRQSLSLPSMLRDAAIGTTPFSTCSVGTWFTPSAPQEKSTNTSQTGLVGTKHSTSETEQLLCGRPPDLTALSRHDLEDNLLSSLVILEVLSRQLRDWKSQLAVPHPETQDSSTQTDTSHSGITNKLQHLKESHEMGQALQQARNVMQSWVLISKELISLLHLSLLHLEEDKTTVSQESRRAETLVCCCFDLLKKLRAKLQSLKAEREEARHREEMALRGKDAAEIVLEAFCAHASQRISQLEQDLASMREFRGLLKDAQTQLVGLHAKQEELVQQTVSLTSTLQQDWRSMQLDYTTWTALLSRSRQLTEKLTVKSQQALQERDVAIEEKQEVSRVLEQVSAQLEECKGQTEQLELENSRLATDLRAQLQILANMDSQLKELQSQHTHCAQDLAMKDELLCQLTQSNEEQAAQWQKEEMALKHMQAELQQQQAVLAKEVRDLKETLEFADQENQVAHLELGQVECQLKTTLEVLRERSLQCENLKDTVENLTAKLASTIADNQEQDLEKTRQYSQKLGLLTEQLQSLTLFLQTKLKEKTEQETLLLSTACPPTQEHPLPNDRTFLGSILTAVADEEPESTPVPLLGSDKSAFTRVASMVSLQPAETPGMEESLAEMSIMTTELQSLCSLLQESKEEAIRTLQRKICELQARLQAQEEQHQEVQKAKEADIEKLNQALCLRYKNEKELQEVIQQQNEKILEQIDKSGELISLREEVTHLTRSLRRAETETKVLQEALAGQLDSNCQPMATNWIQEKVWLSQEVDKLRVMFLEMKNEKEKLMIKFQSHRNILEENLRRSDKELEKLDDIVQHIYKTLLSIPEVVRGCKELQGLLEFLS
B5: Coiled-coil alpha-helical rod protein 1 (Homo sapiens), Q8TD31 (parent)
chain: B2 chain
partner: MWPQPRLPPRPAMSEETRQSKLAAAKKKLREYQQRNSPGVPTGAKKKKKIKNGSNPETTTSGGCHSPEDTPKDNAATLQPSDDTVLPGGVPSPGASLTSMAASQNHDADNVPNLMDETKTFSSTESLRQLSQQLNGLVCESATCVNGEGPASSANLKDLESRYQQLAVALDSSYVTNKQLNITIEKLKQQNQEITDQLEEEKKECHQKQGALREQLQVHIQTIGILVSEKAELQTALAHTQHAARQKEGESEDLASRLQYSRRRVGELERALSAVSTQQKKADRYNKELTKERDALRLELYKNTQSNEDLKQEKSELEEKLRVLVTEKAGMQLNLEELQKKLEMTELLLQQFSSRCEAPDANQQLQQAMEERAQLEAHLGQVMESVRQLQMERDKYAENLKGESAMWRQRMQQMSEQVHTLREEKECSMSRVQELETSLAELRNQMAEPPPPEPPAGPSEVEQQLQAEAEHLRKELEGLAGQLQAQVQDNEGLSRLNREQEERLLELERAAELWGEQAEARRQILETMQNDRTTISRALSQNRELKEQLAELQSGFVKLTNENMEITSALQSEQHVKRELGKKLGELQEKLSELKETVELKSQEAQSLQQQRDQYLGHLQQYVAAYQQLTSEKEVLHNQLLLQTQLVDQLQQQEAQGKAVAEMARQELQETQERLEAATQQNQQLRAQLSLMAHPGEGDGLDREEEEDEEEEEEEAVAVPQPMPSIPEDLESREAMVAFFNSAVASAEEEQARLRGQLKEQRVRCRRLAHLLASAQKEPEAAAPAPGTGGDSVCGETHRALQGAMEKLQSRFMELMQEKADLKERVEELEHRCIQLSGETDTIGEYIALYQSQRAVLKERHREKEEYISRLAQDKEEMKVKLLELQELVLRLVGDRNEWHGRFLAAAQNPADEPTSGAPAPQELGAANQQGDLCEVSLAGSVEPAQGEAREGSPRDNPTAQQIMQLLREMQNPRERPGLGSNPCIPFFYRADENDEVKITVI

Variants of: B1
Conditions: with rab2a_human RAB2A

Row | Variant | effect of a mutation on the interaction
1 | Q443R | disrupting interaction strength

Variants of: B1
Conditions: with rab2b_human RAB2B

Row | Variant | effect of a mutation on the interaction
2 | Q443R | disrupting interaction strength

Variants of: B2
Conditions: with tri27_human TRIM27, P14373

Row | Variant | effect of a mutation on the interaction
3 | W337R | disrupting interaction strength

Variants of: B3
Conditions: with trim1_human MID2, Q9UJV3

Row | Variant | effect of a mutation on the interaction
4 | W337R | disrupting interaction strength

Variants of: B4
Conditions: with spag5_human SPAG5, Q96R06

Row | Variant | effect of a mutation on the interaction
5 | W337R | disrupting interaction strength

Variants of: B5
Conditions: with goga2_human GOLGA2, Q08379

Row | Variant | effect of a mutation on the interaction
6 | W337R | disrupting interaction strength
